# T1: human FcγRIIb (human, UniProt P31994 43-217)
# T1 construct: also called FcγIIB; FcγRIIb extracellular region
# T1 sequence: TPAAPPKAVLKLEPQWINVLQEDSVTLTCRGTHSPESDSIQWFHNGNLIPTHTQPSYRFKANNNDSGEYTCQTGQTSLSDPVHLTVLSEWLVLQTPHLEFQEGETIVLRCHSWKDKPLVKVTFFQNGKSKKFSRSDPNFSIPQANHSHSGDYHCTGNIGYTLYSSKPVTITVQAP
# T2: human FcγRIIa type R (human, UniProt P12318 36-217)
# T2 construct: also called Fcγ RIIaR; FcγRIIa(R)
# T2 chain: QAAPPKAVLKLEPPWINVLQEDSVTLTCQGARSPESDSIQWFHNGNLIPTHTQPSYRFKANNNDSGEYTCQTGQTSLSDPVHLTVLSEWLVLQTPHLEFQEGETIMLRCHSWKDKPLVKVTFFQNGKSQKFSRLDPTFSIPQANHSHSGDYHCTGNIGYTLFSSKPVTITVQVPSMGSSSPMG
# B1: IL6R-PD043/IL6R-L (antibody, human IgG1)
# heavy: QVQLQESGPGLVKPSETLSLTCAVSGHSISHDHAWSWVRQPPGEGLEWIGFISYSGITNYNPSLQGRVTISRDNSKNTLYLQMNSLRAEDTAVYYCARSLARTTAMDYWGEGTLVTVSSASTKGPSVFPLAPSSKSTSGGTAALGCLVKDYFPEPVTVSWNSGALTSGVHTFPAVLQSSGLYSLSSVVTVPSSSLGTQTYICNVNHKPSNTKVDKKVEPKSCDKTHTCPPCPAPEYLGGDSVFLFPPKPKDTLYISRTPEVTCVVVDVSHEDPEVKFNWYVDGVEVHNAKTKPREEQYNSTYRVVSVLTVLHQDWLNGKEYKCKVSNKALPAPIEKTISKAKGQPREPQVYTLPPSRDELTKNQVSLTCLVKGFYPSDIAVEWESNGQPENNYKTTPPVLDSDGSFFLYSKLTVDKSRWQQGNVFSCSVMHEALHYHYTQKSLSLSP
# light: DIQMTQSPSSLSASVGDRVTITCRASQDISSYLNWYQQKPGKAPKLLIYYTSRLHSGVPSRFSGSGSGTDFTFTISSLQPEDIATYYCQQGNTLPYTFGQGTKVEIK
# notes: PD variant: P238D/L234Y introduced into IL6R-F11 (EU numbering); copies: 2 + 2
# B2: IL6R-PD079/IL6R-L (antibody, human IgG1)
# heavy: QVQLQESGPGLVKPSETLSLTCAVSGHSISHDHAWSWVRQPPGEGLEWIGFISYSGITNYNPSLQGRVTISRDNSKNTLYLQMNSLRAEDTAVYYCARSLARTTAMDYWGEGTLVTVSSASTKGPSVFPLAPSSKSTSGGTAALGCLVKDYFPEPVTVSWNSGALTSGVHTFPAVLQSSGLYSLSSVVTVPSSSLGTQTYICNVNHKPSNTKVDKKVEPKSCDKTHTCPPCPAPELLGADSVFLFPPKPKDTLYISRTPEVTCVVVDVSHEDPEVKFNWYVDGVEVHNAKTKPREEQYNSTYRVVSVLTVLHQDWLNGKEYKCKVSNKALPAPIEKTISKAKGQPREPQVYTLPPSRDELTKNQVSLTCLVKGFYPSDIAVEWESNGQPENNYKTTPPVLDSDGSFFLYSKLTVDKSRWQQGNVFSCSVMHEALHYHYTQKSLSLSP
# light: DIQMTQSPSSLSASVGDRVTITCRASQDISSYLNWYQQKPGKAPKLLIYYTSRLHSGVPSRFSGSGSGTDFTFTISSLQPEDIATYYCQQGNTLPYTFGQGTKVEIK
# notes: PD variant: P238D/G237A introduced into IL6R-F11 (EU numbering); copies: 2 + 2
# B3: IL6R-PD082/IL6R-L (antibody, human IgG1)
# heavy: QVQLQESGPGLVKPSETLSLTCAVSGHSISHDHAWSWVRQPPGEGLEWIGFISYSGITNYNPSLQGRVTISRDNSKNTLYLQMNSLRAEDTAVYYCARSLARTTAMDYWGEGTLVTVSSASTKGPSVFPLAPSSKSTSGGTAALGCLVKDYFPEPVTVSWNSGALTSGVHTFPAVLQSSGLYSLSSVVTVPSSSLGTQTYICNVNHKPSNTKVDKKVEPKSCDKTHTCPPCPAPELLGFDSVFLFPPKPKDTLYISRTPEVTCVVVDVSHEDPEVKFNWYVDGVEVHNAKTKPREEQYNSTYRVVSVLTVLHQDWLNGKEYKCKVSNKALPAPIEKTISKAKGQPREPQVYTLPPSRDELTKNQVSLTCLVKGFYPSDIAVEWESNGQPENNYKTTPPVLDSDGSFFLYSKLTVDKSRWQQGNVFSCSVMHEALHYHYTQKSLSLSP
# light: DIQMTQSPSSLSASVGDRVTITCRASQDISSYLNWYQQKPGKAPKLLIYYTSRLHSGVPSRFSGSGSGTDFTFTISSLQPEDIATYYCQQGNTLPYTFGQGTKVEIK
# notes: PD variant: P238D/G237F introduced into IL6R-F11 (EU numbering); copies: 2 + 2
# B4: IL6R-PD087/IL6R-L (antibody, human IgG1)
# heavy: QVQLQESGPGLVKPSETLSLTCAVSGHSISHDHAWSWVRQPPGEGLEWIGFISYSGITNYNPSLQGRVTISRDNSKNTLYLQMNSLRAEDTAVYYCARSLARTTAMDYWGEGTLVTVSSASTKGPSVFPLAPSSKSTSGGTAALGCLVKDYFPEPVTVSWNSGALTSGVHTFPAVLQSSGLYSLSSVVTVPSSSLGTQTYICNVNHKPSNTKVDKKVEPKSCDKTHTCPPCPAPELLGMDSVFLFPPKPKDTLYISRTPEVTCVVVDVSHEDPEVKFNWYVDGVEVHNAKTKPREEQYNSTYRVVSVLTVLHQDWLNGKEYKCKVSNKALPAPIEKTISKAKGQPREPQVYTLPPSRDELTKNQVSLTCLVKGFYPSDIAVEWESNGQPENNYKTTPPVLDSDGSFFLYSKLTVDKSRWQQGNVFSCSVMHEALHYHYTQKSLSLSP
# light: DIQMTQSPSSLSASVGDRVTITCRASQDISSYLNWYQQKPGKAPKLLIYYTSRLHSGVPSRFSGSGSGTDFTFTISSLQPEDIATYYCQQGNTLPYTFGQGTKVEIK
# notes: PD variant: P238D/G237M introduced into IL6R-F11 (EU numbering); copies: 2 + 2
# B5: IL6R-PD086/IL6R-L (antibody, human IgG1)
# heavy: QVQLQESGPGLVKPSETLSLTCAVSGHSISHDHAWSWVRQPPGEGLEWIGFISYSGITNYNPSLQGRVTISRDNSKNTLYLQMNSLRAEDTAVYYCARSLARTTAMDYWGEGTLVTVSSASTKGPSVFPLAPSSKSTSGGTAALGCLVKDYFPEPVTVSWNSGALTSGVHTFPAVLQSSGLYSLSSVVTVPSSSLGTQTYICNVNHKPSNTKVDKKVEPKSCDKTHTCPPCPAPELLGLDSVFLFPPKPKDTLYISRTPEVTCVVVDVSHEDPEVKFNWYVDGVEVHNAKTKPREEQYNSTYRVVSVLTVLHQDWLNGKEYKCKVSNKALPAPIEKTISKAKGQPREPQVYTLPPSRDELTKNQVSLTCLVKGFYPSDIAVEWESNGQPENNYKTTPPVLDSDGSFFLYSKLTVDKSRWQQGNVFSCSVMHEALHYHYTQKSLSLSP
# light: DIQMTQSPSSLSASVGDRVTITCRASQDISSYLNWYQQKPGKAPKLLIYYTSRLHSGVPSRFSGSGSGTDFTFTISSLQPEDIATYYCQQGNTLPYTFGQGTKVEIK
# notes: PD variant: P238D/G237L introduced into IL6R-F11 (EU numbering); copies: 2 + 2
# B6: IL6R-PD095/IL6R-L (antibody, human IgG1)
# heavy: QVQLQESGPGLVKPSETLSLTCAVSGHSISHDHAWSWVRQPPGEGLEWIGFISYSGITNYNPSLQGRVTISRDNSKNTLYLQMNSLRAEDTAVYYCARSLARTTAMDYWGEGTLVTVSSASTKGPSVFPLAPSSKSTSGGTAALGCLVKDYFPEPVTVSWNSGALTSGVHTFPAVLQSSGLYSLSSVVTVPSSSLGTQTYICNVNHKPSNTKVDKKVEPKSCDKTHTCPPCPAPELLGYDSVFLFPPKPKDTLYISRTPEVTCVVVDVSHEDPEVKFNWYVDGVEVHNAKTKPREEQYNSTYRVVSVLTVLHQDWLNGKEYKCKVSNKALPAPIEKTISKAKGQPREPQVYTLPPSRDELTKNQVSLTCLVKGFYPSDIAVEWESNGQPENNYKTTPPVLDSDGSFFLYSKLTVDKSRWQQGNVFSCSVMHEALHYHYTQKSLSLSP
# light: DIQMTQSPSSLSASVGDRVTITCRASQDISSYLNWYQQKPGKAPKLLIYYTSRLHSGVPSRFSGSGSGTDFTFTISSLQPEDIATYYCQQGNTLPYTFGQGTKVEIK
# notes: PD variant: P238D/G237Y introduced into IL6R-F11 (EU numbering); copies: 2 + 2
# B7: IL6R-PD094/IL6R-L (antibody, human IgG1)
# heavy: QVQLQESGPGLVKPSETLSLTCAVSGHSISHDHAWSWVRQPPGEGLEWIGFISYSGITNYNPSLQGRVTISRDNSKNTLYLQMNSLRAEDTAVYYCARSLARTTAMDYWGEGTLVTVSSASTKGPSVFPLAPSSKSTSGGTAALGCLVKDYFPEPVTVSWNSGALTSGVHTFPAVLQSSGLYSLSSVVTVPSSSLGTQTYICNVNHKPSNTKVDKKVEPKSCDKTHTCPPCPAPELLGWDSVFLFPPKPKDTLYISRTPEVTCVVVDVSHEDPEVKFNWYVDGVEVHNAKTKPREEQYNSTYRVVSVLTVLHQDWLNGKEYKCKVSNKALPAPIEKTISKAKGQPREPQVYTLPPSRDELTKNQVSLTCLVKGFYPSDIAVEWESNGQPENNYKTTPPVLDSDGSFFLYSKLTVDKSRWQQGNVFSCSVMHEALHYHYTQKSLSLSP
# light: DIQMTQSPSSLSASVGDRVTITCRASQDISSYLNWYQQKPGKAPKLLIYYTSRLHSGVPSRFSGSGSGTDFTFTISSLQPEDIATYYCQQGNTLPYTFGQGTKVEIK
# notes: PD variant: P238D/G237W introduced into IL6R-F11 (EU numbering); copies: 2 + 2
# B8: IL6R-PD081/IL6R-L (antibody, human IgG1)
# heavy: QVQLQESGPGLVKPSETLSLTCAVSGHSISHDHAWSWVRQPPGEGLEWIGFISYSGITNYNPSLQGRVTISRDNSKNTLYLQMNSLRAEDTAVYYCARSLARTTAMDYWGEGTLVTVSSASTKGPSVFPLAPSSKSTSGGTAALGCLVKDYFPEPVTVSWNSGALTSGVHTFPAVLQSSGLYSLSSVVTVPSSSLGTQTYICNVNHKPSNTKVDKKVEPKSCDKTHTCPPCPAPELLGEDSVFLFPPKPKDTLYISRTPEVTCVVVDVSHEDPEVKFNWYVDGVEVHNAKTKPREEQYNSTYRVVSVLTVLHQDWLNGKEYKCKVSNKALPAPIEKTISKAKGQPREPQVYTLPPSRDELTKNQVSLTCLVKGFYPSDIAVEWESNGQPENNYKTTPPVLDSDGSFFLYSKLTVDKSRWQQGNVFSCSVMHEALHYHYTQKSLSLSP
# light: DIQMTQSPSSLSASVGDRVTITCRASQDISSYLNWYQQKPGKAPKLLIYYTSRLHSGVPSRFSGSGSGTDFTFTISSLQPEDIATYYCQQGNTLPYTFGQGTKVEIK
# notes: PD variant: P238D/G237E introduced into IL6R-F11 (EU numbering); copies: 2 + 2
# B9: IL6R-PD080/IL6R-L (antibody)
# heavy: QVQLQESGPGLVKPSETLSLTCAVSGHSISHDHAWSWVRQPPGEGLEWIGFISYSGITNYNPSLQGRVTISRDNSKNTLYLQMNSLRAEDTAVYYCARSLARTTAMDYWGEGTLVTVSSASTKGPSVFPLAPSSKSTSGGTAALGCLVKDYFPEPVTVSWNSGALTSGVHTFPAVLQSSGLYSLSSVVTVPSSSLGTQTYICNVNHKPSNTKVDKKVEPKSCDKTHTCPPCPAPELLGDDSVFLFPPKPKDTLYISRTPEVTCVVVDVSHEDPEVKFNWYVDGVEVHNAKTKPREEQYNSTYRVVSVLTVLHQDWLNGKEYKCKVSNKALPAPIEKTISKAKGQPREPQVYTLPPSRDELTKNQVSLTCLVKGFYPSDIAVEWESNGQPENNYKTTPPVLDSDGSFFLYSKLTVDKSRWQQGNVFSCSVMHEALHYHYTQKSLSLSP
# light: DIQMTQSPSSLSASVGDRVTITCRASQDISSYLNWYQQKPGKAPKLLIYYTSRLHSGVPSRFSGSGSGTDFTFTISSLQPEDIATYYCQQGNTLPYTFGQGTKVEIK
# notes: PD variant: P238D/G237D introduced into IL6R-F11 (EU numbering); copies: 2 + 2
# Key:
# human FcγRIIb = biological target: T1, human FcγRIIb; assay: SPR (Biacore), antibody captured on chip, FcγR as analyte; binding amount divided by that of IL6R-F652/IL6R-L, times 100
# human FcγRIIa type R = biological target: T2, human FcγRIIa type R; assay: as above
Binder,relative binding activity for FcγRIIb (human FcγRIIb),relative binding activity for FcγRIIaR (human FcγRIIa type R)
B1,112 % of the binding amount of IL6R-F652/IL6R-L,175 % of the binding amount of IL6R-F652/IL6R-L
B2,101 % of the binding amount of IL6R-F652/IL6R-L,138 % of the binding amount of IL6R-F652/IL6R-L
B3,108 % of the binding amount of IL6R-F652/IL6R-L,380 % of the binding amount of IL6R-F652/IL6R-L
B4,109 % of the binding amount of IL6R-F652/IL6R-L,196 % of the binding amount of IL6R-F652/IL6R-L
B5,112 % of the binding amount of IL6R-F652/IL6R-L,268 % of the binding amount of IL6R-F652/IL6R-L
B6,124 % of the binding amount of IL6R-F652/IL6R-L,543 % of the binding amount of IL6R-F652/IL6R-L
B7,122 % of the binding amount of IL6R-F652/IL6R-L,593 % of the binding amount of IL6R-F652/IL6R-L
B8,101 % of the binding amount of IL6R-F652/IL6R-L,117 % of the binding amount of IL6R-F652/IL6R-L
B9,127 % of the binding amount of IL6R-F652/IL6R-L,222 % of the binding amount of IL6R-F652/IL6R-L
